Earlier results, collected in patent publication US7630838B2, “Method for identifying agents that interact with beta-site APP cleaving enzyme (BACE)” (American Home Products Corporation, priority 2000, dated 2009).
Non-standard residues stand in square brackets, D forms with d. No end group written: not given here. Sta = CC(C)C[C@H](N)[C@@H](O)CC(=O)O

Target: β-secretase enzyme (Homo sapiens, UniProt P56817)
Details: stated in words only; no number given

Chain of β-secretase enzyme (P56817 46-501): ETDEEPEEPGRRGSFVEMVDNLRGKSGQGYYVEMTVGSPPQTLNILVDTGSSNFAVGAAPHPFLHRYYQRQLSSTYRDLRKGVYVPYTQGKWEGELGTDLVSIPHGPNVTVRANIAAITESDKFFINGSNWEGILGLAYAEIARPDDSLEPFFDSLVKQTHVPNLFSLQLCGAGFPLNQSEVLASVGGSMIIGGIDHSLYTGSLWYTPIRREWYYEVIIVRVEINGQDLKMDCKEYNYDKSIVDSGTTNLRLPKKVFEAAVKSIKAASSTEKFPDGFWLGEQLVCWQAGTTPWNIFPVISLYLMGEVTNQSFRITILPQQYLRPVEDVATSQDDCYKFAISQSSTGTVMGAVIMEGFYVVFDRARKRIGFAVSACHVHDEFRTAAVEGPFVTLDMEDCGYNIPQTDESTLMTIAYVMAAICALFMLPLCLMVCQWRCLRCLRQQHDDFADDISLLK

inhibit the β-secretase enzyme (efficiency): nanomolar efficiency
Substance: SER-GLU-VAL-ASN-Sta-VAL-ALA-GLU-PHE (SEVN[Sta]VAEF) [statine based inhibitor, based on the APP Swedish mutation]
